Patent publication US20210380688A1 (SHENZHEN UNIVERSITY, published 2021)

Molecular target: ROR2 mutant with the deletion of the d-Kringle region, flag-tagged (B4) (human, UniProt Q01974 34-943, limits assumed)
Assay: western blot of lysate of transfected 293T cells
Text: In order to find the epitope bound by the B16 chimeric antibody, flag-tagged mutant plasmids (B1-B8) from different regions of the ROR2 protein were constructed (The Flag tag is a polypeptide fragment composed of eight hydrophilic amino acids […], which can be fused with proteins without occupying protein epitopes or structural domains, avoiding affecting the function, secretion, and transport properties of the protein. The flag tag is used to mark the target protein, if the tag is expressed, the target protein will also be expressed). The plasmid used is pcDNA3.0 plasmid. The full-length sequence of human-derived ROR2 protein includes SP region, Ig-like region, CRD region, Kringle region, Kinase region, S/T1 region, Pro region and S/T2 region. Each part and the corresponding function can refer to Debebe Z, Rathmell W K. Ror2 as a Therapeutic Target in Cancer [J]. Pharmacology & Therapeutics, 2015, 150:143-148. […]
After 48 hours of expression, the cells transfected with mutant plasmids in different regions of ROR2 were lysed. By western blot, the expression of ROR2 protein was detected with B16 chimeric antibody, Flag antibody and Santa Cruz's ROR2 antibody (Cat. No.: sc-374174).

Sequence of ROR2 mutant with the deletion of the d-Kringle region, flag-tagged (B4) (Q01974 other isoform, or with tags, fused parts or gaps mutant limits assumed): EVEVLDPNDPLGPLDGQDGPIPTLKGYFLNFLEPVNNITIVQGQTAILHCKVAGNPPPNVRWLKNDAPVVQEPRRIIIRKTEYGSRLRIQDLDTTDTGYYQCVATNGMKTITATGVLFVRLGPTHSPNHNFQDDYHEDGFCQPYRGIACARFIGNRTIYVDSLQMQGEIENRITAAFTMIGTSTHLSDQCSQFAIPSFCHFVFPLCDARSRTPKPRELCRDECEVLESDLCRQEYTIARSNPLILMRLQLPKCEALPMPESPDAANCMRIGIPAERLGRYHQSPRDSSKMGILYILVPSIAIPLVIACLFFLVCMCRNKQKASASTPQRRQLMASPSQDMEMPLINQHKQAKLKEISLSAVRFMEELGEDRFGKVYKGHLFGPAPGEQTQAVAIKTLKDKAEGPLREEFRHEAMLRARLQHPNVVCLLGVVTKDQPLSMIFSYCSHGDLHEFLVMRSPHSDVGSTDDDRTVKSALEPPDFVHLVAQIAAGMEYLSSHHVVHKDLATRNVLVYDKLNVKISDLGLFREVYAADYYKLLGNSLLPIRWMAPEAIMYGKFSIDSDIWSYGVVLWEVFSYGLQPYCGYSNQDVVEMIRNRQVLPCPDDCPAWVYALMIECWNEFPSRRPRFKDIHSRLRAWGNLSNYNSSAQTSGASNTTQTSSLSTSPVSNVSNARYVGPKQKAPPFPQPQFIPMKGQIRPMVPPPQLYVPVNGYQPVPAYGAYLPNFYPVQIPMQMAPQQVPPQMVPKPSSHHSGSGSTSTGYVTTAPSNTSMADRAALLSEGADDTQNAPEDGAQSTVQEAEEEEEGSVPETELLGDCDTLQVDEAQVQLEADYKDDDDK

- binding result: no binding
B1: B16 chimeric antibody (antibody, human IgG1, kappa, V domains shown)
VH: QLQLQQSGPELVKPGASVRMSCKAAGYTFTSYLMHWVKQRPGQDLEWIGYINPYNDGTKYNEKFKDKATLTSDKSSSTVYMELSSLTSEDSAVYYCARSDVYYGVRFAYWGQGTLVTVSA
VL: DIVLTQSPAIMSASPGEKVTMTCSASSSVTYTYWYQQKPGSSPRLLIYDTSNLASGVPVRFSGSGSGTSYSLTISRMEAEDAATYYCQQWSSYPFTFGSGTKLEIKR
notes: also called anti-ROR2 monoclonal antibody B16 chimeric antibody; B16 antibody
